The values below come from PMC10953011, “Oxygen‐insensitive nitroreductase E. coli NfsA, but not NfsB, is inhibited by fumarate” (Proteins, 2022).

Substrate in data set [1]: NC(=O)C1=CN([C@@H]2O[C@H](COP(=O)(O)OP(=O)(O)OC[C@H]3O[C@@H](n4cnc5c(N)ncnc54)[C@H](OP(=O)(O)O)[C@@H]3O)[C@@H](O)[C@H]2O)C=CC1
Briefly: purified protein. The class given is biochemical, Escherichia coli. Particulars: FMN; pH 7.0; 25.0 °C.

Substrate in data set [2]: NC(=O)N/N=C/c1ccc([N+](=O)[O-])o1
The data set is described as follows: purified protein. Type of data set: biochemical, Escherichia coli. Particulars: FMN; pH 7.0; 25.0 °C.

B1: NfsA (Escherichia coli K-12) (protein)
chain: MTPTIELICGHRSIRHFTDEPISEAQREAIINSARATSSSSFLQCSSIIRITDKALREELVTLTGGQKHVAQAAEFWVFCADFNRHLQICPDAQLGLAEQLLLGVVDTAMMAQNALIAAESLGLGGVYIGGLRNNIEAVTKLLKLPQHVLPLFGLCLGWPADNPDLKPRLPASILVHENSYQPLDKGALAQYDEQLAEYYLTRGSNNRRDTWSDHIRRTIIKESRPFILDYLHKQGWATR
notes: untagged full-length
In general, Km refers to the substrate concentration at which the rate is half of its maximum. For orientation: kcat means the maximal rate divided by the concentration of active sites. The kcat/Km is the turnover number divided by the Michaelis constant. Turning to B1, in the data set “purified protein [1]”, the Km was determined as 29 ± 6 µM, the kcat worked out at 25 ± 2 s⁻¹ and the catalytic efficiency (kcat/Km) is 860000 ± 100000 M⁻¹ s⁻¹. Moreover, in “purified protein [2]”, the Michaelis-Menten constant (Km) was 27 ± 6 µM, the turnover number (kcat) amounted to 25 ± 2 s⁻¹ and the kcat/Km amounted to 930000 ± 100000 M⁻¹ s⁻¹.
